Results taken from paper PMC11417369, “DNA sequence and chromatin differentiate sequence-specific transcription factor binding in the human malaria parasite Plasmodium falciparum”.

T1: SIP2 D1 (Plasmodium falciparum, UniProt C6KSN9 177-235)
T1 sequence: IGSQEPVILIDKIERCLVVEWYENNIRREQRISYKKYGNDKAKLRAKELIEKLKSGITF

B1: GTGCAC_negctrl_site410 (dsDNA)
DNA 1: TTATCTTAATTGTGATTATAAAGATATTCTTTCTAT
DNA 2: ATAGAAAGAATATCTTTATAATCACAATTAAGATAA
B2: GTGCAC_negctrl_site389 (dsDNA)
DNA 1: TATTATAAATTAATTTTAAACTTTATTATTATGATA
DNA 2: TATCATAATAATAAAGTTTAAAATTAATTTATAATA
B3: GTGCAC_negctrl_site525 (dsDNA)
DNA 1: TTTCTAAGAAAAAAAAAAAAAAAAAAAAAGATACAA
DNA 2: TTGTATCTTTTTTTTTTTTTTTTTTTTTCTTAGAAA
B4: GTGCAC_negctrl_site386 (dsDNA)
DNA 1: AAGATAAACTTTTTTAATTAATTTAATTTTTTTTTT
DNA 2: AAAAAAAAAATTAAATTAATTAAAAAAGTTTATCTT
B5: GTGCAC_negctrl_site453 (dsDNA)
DNA 1: AATAGGAAGACTATTTTGTATTTGATTTTTTATTCC
DNA 2: GGAATAAAAAATCAAATACAAAATAGTCTTCCTATT
B6: GTGCAC_negctrl_site559 (dsDNA)
DNA 1: TTTTTTATTGTGAAACTGATATTATATTTTTTATAA
DNA 2: TTATAAAAAATATAATATCAGTTTCACAATAAAAAA
B7: GTGCAC_negctrl_site373 (dsDNA)
DNA 1: AATAAATTAAATAAAAATGTTTAACATAAAATATGA
DNA 2: TCATATTTTATGTTAAACATTTTTATTTAATTTATT
B8: GTGCAC_negctrl_site53 (dsDNA)
DNA 1: TGAAAAATTACAAAAATAATAAAATGAAATAATAAA
DNA 2: TTTATTATTTCATTTTATTATTTTTGTAATTTTTCA
B9: GTGCAC_negctrl_site187 (dsDNA)
DNA 1: AGGAAACAAGAAATGAAGAATCATGTAGAAGGCCCA
DNA 2: TGGGCCTTCTACATGATTCTTCATTTCTTGTTTCCT
B10: GTGCAC_negctrl_site504 (dsDNA)
DNA 1: TTTCAAGGATTTAATTTATGGAAACCTTCTTCATTT
DNA 2: AAATGAAGAAGGTTTCCATAAATTAAATCCTTGAAA
B11: GTGCAC_negctrl_site419 (dsDNA)
DNA 1: GAAGGAAAAGATACGATAAAATAAGATATTAATTTA
DNA 2: TAAATTAATATCTTATTTTATCGTATCTTTTCCTTC
B12: GTGCAC_negctrl_site629 (dsDNA)
DNA 1: TTGTTTTCTTTTTCTTTTCTTTTTCTTTTTTCTTTT
DNA 2: AAAAGAAAAAAGAAAAAGAAAAGAAAAAGAAAACAA
B13: GTGCAC_negctrl_site471 (dsDNA)
DNA 1: GATTATCTATCGCTTGAATGAAATGAAATCATGCAA
DNA 2: TTGCATGATTTCATTTCATTCAAGCGATAGATAATC
B14: GTGCAC_negctrl_site205 (dsDNA)
DNA 1: TATAATTATTTTTTTCTAAATATTATAAGGTATTCA
DNA 2: TGAATACCTTATAATATTTAGAAAAAAATAATTATA
B15: GTGCAC_negctrl_site536 (dsDNA)
DNA 1: TGAAAAAATATAAAATATAAAATAAAAAATATAAAA
DNA 2: TTTTATATTTTTTATTTTATATTTTATATTTTTTCA
B16: GTGCAC_negctrl_site79 (dsDNA)
DNA 1: TTTTAAAAAAGAAAAAAAAAGGATCAGAGAAATATT
DNA 2: AATATTTCTCTGATCCTTTTTTTTTCTTTTTTAAAA
B17: GTGCAC_negctrl_site530 (dsDNA)
DNA 1: AATATATCAAAAATGATGACATAAATATATTAATTT
DNA 2: AAATTAATATATTTATGTCATCATTTTTGATATATT
B18: GTGCAC_negctrl_site401 (dsDNA)
DNA 1: AAAAAAATTAAAAATAAAGAAAAAAAAAAAAAAAAA
DNA 2: TTTTTTTTTTTTTTTTTCTTTATTTTTAATTTTTTT

Biological target: T1, SIP2 D1
Assay: gcPBM; about 25 ug protein; PBS, 1% milk, 0.2 mg/ml BSA, salmon testes DNA, 0.03% Triton X-100
Conditions: tags: N-terminal GST (pGEX-4T-1), kept; label: surface-attached array probe

Row | Binder | binding signal
1 | B1 | 6.56 ln median PBM intensity, better of two orientations
2 | B2 | 6.7 ln median PBM intensity, better of two orientations
3 | B3 | 6.64 ln median PBM intensity, better of two orientations
4 | B4 | 6.66 ln median PBM intensity, better of two orientations
5 | B5 | 6.62 ln median PBM intensity, better of two orientations
6 | B6 | 6.71 ln median PBM intensity, better of two orientations
7 | B7 | 6.67 ln median PBM intensity, better of two orientations
8 | B8 | 6.68 ln median PBM intensity, better of two orientations
9 | B9 | 6.71 ln median PBM intensity, better of two orientations
10 | B10 | 6.53 ln median PBM intensity, better of two orientations
11 | B11 | 6.61 ln median PBM intensity, better of two orientations
12 | B12 | 6.64 ln median PBM intensity, better of two orientations
13 | B13 | 6.65 ln median PBM intensity, better of two orientations
14 | B14 | 6.55 ln median PBM intensity, better of two orientations
15 | B15 | 6.67 ln median PBM intensity, better of two orientations
16 | B16 | 6.69 ln median PBM intensity, better of two orientations
17 | B17 | 6.58 ln median PBM intensity, better of two orientations
18 | B18 | 6.66 ln median PBM intensity, better of two orientations
